{"source": "IntAct's records for PubMed 19369211", "parents": {"B1": {"name": "Partner and localizer of BRCA2 (Homo sapiens), Q86YC2 (parent)", "chain": "MDEPPGKPLSCEEKEKLKEKLAFLKREYSKTLARLQRAQRAEKIKHSIKKTVEEQDCLSQQDLSPQLKHSEPKNKICVYDKLHIKTHLDEETGEKTSITLDVGPESFNPGDGPGGLPIQRTDDTQEHFPHRVSDPSGEQKQKLPSRRKKQQKRTFISQERDCVFGTDSLRLSGKRLKEQEEISSKNPARSPVTEIRTHLLSLKSELPDSPEPVTEINEDSVLIPPTAQPEKGVDTFLRRPNFTRATTVPLQTLSDSGSSQHLEHIPPKGSSELTTHDLKNIRFTSPVSLEAQGKKMTVSTDNLLVNKAISKSGQLPTSSNLEANISCSLNELTYNNLPANENQNLKEQNQTEKSLKSPSDTLDGRNENLQESEILSQPKSLSLEATSPLSAEKHSCTVPEGLLFPAEYYVRTTRSMSNCQRKVAVEAVIQSHLDVKKKGFKNKNKDASKNLNLSNEETDQSEIRMSGTCTGQPSSRTSQKLLSLTKVSSPAGPTEDNDLSRKAVAQAPGRRYTGKRKSACTPASDHCEPLLPTSSLSIVNRSKEEVTSHKYQHEKLFIQVKGKKSRHQKEDSLSWSNSAYLSLDDDAFTAPFHRDGMLSLKQLLSFLSITDFQLPDEDFGPLKLEKVKSCSEKPVEPFESKMFGERHLKEGSCIFPEELSPKRMDTEMEDLEEDLIVLPGKSHPKRPNSQSQHTKTGLSSSILLYTPLNTVAPDDNDRPTTDMCSPAFPILGTTPAFGPQGSYEKASTEVAGRTCCTPQLAHLKDSVCLASDTKQFDSSGSPAKPHTTLQVSGRQGQPTCDCDSVPPGTPPPIESFTFKENQLCRNTCQELHKHSVEQTETAELPASDSINPGNLQLVSELKNPSGSCSVDVSAMFWERAGCKEPCIITACEDVVSLWKALDAWQWEKLYTWHFAEVPVLQIVPVPDVYNLVCVALGNLEIREIRALFCSSDDESEKQVLLKSGNIKAVLGLTKRRLVSSSGTLSDQQVEVMTFAEDGGGKENQFLMPPEETILTFAEVQGMQEALLGTTIMNNIVIWNLKTGQLLKKMHIDDSYQASVCHKAYSEMGLLFIVLSHPCAKESESLRSPVFQLIVINPKTTLSVGVMLYCLPPGQAGRFLEGDVKDHCAAAILTSGTIAIWDLLLGQCTALLPPVSDQHWSFVKWSGTDSHLLAGQKDGNIFVYHYS"}}, "data": [{"variants_of": "B1", "conditions": "with brca1_human BRCA1, P38398", "values": [{"variant": "L21A", "effect of a mutation on the interaction": "disrupting interaction"}, {"variant": "Y28A", "effect of a mutation on the interaction": "disrupting interaction"}]}]}
